The values below come from patent EP0912608B1.

The experiment concerns the target Fibronectin from human plasma (human) (UniProt P02751). In words: cell-based or functional assay.
Sequence of UniProt P02751 (P02751 other isoform, or with tags, fused parts or gaps limits assumed): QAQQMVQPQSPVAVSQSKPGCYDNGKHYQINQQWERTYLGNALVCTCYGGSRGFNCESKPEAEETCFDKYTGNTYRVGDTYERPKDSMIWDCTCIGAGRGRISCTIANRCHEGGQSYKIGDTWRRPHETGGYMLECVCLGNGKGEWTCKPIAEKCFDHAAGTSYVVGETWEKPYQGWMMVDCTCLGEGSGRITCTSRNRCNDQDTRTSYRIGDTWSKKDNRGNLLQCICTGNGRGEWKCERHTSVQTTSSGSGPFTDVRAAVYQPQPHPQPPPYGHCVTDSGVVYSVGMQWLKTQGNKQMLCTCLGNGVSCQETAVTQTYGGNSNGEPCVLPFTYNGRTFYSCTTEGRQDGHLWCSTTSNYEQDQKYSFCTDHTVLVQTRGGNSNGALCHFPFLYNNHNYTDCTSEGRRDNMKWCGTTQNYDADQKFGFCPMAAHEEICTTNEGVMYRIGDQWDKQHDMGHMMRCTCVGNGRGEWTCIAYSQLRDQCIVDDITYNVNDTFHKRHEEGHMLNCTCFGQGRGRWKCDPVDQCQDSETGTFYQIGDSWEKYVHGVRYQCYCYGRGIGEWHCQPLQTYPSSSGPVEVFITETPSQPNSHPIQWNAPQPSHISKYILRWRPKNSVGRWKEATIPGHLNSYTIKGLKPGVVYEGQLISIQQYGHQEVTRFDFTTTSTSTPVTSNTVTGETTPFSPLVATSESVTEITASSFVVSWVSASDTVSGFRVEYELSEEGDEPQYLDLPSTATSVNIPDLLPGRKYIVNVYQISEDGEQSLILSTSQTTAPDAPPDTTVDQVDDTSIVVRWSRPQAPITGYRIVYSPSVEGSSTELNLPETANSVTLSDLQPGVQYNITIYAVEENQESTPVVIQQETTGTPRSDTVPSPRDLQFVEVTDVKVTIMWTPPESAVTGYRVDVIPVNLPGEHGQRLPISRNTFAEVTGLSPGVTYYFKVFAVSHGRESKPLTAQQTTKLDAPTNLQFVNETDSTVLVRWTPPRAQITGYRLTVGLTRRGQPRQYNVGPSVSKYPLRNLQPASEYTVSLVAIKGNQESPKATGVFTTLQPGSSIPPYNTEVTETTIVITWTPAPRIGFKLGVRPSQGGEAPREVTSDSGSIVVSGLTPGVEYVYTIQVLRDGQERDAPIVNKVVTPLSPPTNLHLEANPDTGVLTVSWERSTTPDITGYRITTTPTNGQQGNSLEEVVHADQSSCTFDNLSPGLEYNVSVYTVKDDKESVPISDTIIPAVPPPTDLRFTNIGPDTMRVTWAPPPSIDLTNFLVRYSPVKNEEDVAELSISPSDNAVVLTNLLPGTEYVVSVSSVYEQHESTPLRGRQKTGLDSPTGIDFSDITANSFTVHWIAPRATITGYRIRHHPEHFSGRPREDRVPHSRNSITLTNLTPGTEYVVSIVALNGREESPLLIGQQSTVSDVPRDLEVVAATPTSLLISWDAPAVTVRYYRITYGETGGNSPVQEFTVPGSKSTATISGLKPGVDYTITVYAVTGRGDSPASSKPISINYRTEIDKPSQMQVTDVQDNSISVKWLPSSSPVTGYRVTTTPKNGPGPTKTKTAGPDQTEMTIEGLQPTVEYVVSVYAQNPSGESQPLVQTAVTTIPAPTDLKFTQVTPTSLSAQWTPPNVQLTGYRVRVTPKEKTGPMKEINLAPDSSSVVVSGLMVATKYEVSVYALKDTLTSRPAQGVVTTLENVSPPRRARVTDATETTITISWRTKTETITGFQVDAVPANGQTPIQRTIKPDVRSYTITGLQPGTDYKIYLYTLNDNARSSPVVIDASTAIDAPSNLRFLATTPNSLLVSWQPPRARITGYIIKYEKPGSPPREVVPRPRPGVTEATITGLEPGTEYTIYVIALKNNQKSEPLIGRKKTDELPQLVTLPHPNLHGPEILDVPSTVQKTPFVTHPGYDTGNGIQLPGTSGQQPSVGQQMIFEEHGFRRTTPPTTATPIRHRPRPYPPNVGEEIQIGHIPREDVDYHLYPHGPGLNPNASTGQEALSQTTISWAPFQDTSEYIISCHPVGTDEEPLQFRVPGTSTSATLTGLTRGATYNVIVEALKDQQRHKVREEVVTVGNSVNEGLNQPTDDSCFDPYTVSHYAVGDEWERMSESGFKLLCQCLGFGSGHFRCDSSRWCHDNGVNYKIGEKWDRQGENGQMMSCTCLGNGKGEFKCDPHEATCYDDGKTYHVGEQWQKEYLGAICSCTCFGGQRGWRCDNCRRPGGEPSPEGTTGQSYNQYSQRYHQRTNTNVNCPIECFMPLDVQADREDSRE

Turning to “yeast enolase (Sigma) (from UniProt P00924 2-437) (enzyme)”, the inhibition of pneumococcal adherence to fibronectin amounted to 98%.
